One assay has as its target GST-HMGN2ΔC. Description: in vitro multiplex nucleosome-bead conjugate binding assay. The conditions noted are these: for response (RFU (background subtracted)): 0.625 nM GST-HMGN2ΔC, three technical replicates, parent: est. 100000, read off a plot; for other: HMGN2ΔC / HMGN2 relative to canonical nuc.: parent: est. 1.0, read off a plot.
The target in assay [1] is GST-HMGN2 (UniProt P05204). The description is as above. Conditions: 0.625 nM GST-HMGN2, three technical replicates, parent: est. 54000, read off a plot.
In the next assay the target is GST-HMGN1ΔC. The assay is described as above. Conditions: for response (RFU (background subtracted)): 0.625 nM GST-HMGN1ΔC, three technical replicates, parent: est. 110000, read off a plot; for other: HMGN1ΔC / HMGN1 relative to canonical nuc.: parent: est. 1.0, read off a plot.
Assay [2] addresses GST-HMGN1 (UniProt P05114). The assay is described as above. The conditions noted are these: 0.625 nM GST-HMGN1, three technical replicates, parent: est. 37000, read off a plot.
Chain of UniProt P05114 (P05114 whole entry, looked up): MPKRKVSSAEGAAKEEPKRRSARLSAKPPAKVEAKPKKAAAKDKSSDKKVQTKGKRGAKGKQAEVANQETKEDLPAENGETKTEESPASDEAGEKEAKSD
Assay [3] concerns the target GST-HMGN2 (UniProt P05204). Put plainly: in vitro multiplex nucleosome-bead conjugate binding assay (titration). The conditions noted are these: GST-HMGN2 at 5 on the x axis (axis uM; legend nM); raw RFU before normalization; parent: est. 370000; read off a plot.
Assay [4] deals with GST-HMGN1 (UniProt P05114). The description is as above. The conditions noted are these: GST-HMGN1 at 5 on the x axis (axis uM; legend nM); raw RFU before normalization; parent: est. 160000; read off a plot.

As for “canonical unmodified nucleosome (from UniProt P04908;O60814;P68431;P62805) H2A:E61A”, the response (RFU (background subtracted)) with GST-HMGN2ΔC turned out to be 52000; with GST-HMGN2 [1], 16000; with GST-HMGN1ΔC, 66000; in the assay with GST-HMGN1 [2], 11000. The other: HMGN2ΔC / HMGN2 relative to canonical nuc. in the assay with GST-HMGN2ΔC was 2.1. Further, in the assay with GST-HMGN1ΔC, the other: HMGN1ΔC / HMGN1 relative to canonical nuc. amounted to 1.7. The response in the assay with GST-HMGN2 [3] was 92000 RFU; in the assay with GST-HMGN1 [4], 58000 RFU.

Regarding “canonical unmodified nucleosome (from UniProt P04908;O60814;P68431;P62805) H2A:E92K”, the response (RFU (background subtracted)) with GST-HMGN2ΔC was 38000; in the assay with GST-HMGN2 [1], 25000; in the assay with GST-HMGN1ΔC, 66000; in the assay with GST-HMGN1 [2], 22000. Moreover, the other: HMGN2ΔC / HMGN2 relative to canonical nuc. with GST-HMGN2ΔC was 1.2. Further, the other: HMGN1ΔC / HMGN1 relative to canonical nuc. in the assay with GST-HMGN1ΔC worked out at 1.1. Besides, the response in the assay with GST-HMGN2 [3] came to 110000 RFU; with GST-HMGN1 [4] it was 74000 RFU.
